The target in the assay is T1, human CD25 (Homo sapiens, UniProt P01589).
T1 sequence (P01589 22-272): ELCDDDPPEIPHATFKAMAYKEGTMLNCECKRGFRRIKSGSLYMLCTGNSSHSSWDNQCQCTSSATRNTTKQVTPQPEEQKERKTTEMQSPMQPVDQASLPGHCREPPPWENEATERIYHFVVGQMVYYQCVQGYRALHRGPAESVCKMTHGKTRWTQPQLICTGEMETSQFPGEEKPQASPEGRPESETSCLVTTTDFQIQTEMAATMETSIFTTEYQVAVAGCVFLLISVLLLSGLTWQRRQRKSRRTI
Kind of assay: Binding of ADCT-301 to human CD25. The settings on record: stated in words only.

Consider “ADCT-301: ADC of human anti-CD25 monoclonal antibody HuMax-TAC conjugated through a cleavable linker to PBD dimer cytotoxin SG3199”, for which the “affinity to human CD25” value is on record as “picomolar”.
